{"source": "patent US20250066509A1", "target": "human FGFR1c/βKlotho receptor (human), P11362", "sequence (P11362 22-822, chain 1 of 2)": "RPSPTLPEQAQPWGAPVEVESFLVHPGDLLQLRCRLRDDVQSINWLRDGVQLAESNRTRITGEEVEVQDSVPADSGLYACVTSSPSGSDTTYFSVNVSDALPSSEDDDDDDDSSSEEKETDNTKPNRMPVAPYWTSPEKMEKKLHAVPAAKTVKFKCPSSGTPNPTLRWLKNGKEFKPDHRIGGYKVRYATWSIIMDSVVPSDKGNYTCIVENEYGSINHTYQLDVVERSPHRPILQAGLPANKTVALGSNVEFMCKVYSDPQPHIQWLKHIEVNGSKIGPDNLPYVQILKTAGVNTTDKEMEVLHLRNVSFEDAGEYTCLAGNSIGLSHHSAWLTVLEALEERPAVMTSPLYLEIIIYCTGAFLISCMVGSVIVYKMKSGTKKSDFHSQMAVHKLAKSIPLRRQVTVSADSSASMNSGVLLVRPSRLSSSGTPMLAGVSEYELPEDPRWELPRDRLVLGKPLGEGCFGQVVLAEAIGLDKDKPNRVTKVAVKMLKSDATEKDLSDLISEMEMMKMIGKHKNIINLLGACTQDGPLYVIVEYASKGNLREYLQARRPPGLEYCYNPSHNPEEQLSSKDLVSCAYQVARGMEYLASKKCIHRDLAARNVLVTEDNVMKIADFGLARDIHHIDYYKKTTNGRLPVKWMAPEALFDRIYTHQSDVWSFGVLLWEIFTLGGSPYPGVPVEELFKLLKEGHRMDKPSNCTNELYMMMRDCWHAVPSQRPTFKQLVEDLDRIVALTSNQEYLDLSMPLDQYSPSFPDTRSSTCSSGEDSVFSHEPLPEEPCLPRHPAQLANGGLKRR", "sequence (chain, as listed by the source, chain 2 of 2)": "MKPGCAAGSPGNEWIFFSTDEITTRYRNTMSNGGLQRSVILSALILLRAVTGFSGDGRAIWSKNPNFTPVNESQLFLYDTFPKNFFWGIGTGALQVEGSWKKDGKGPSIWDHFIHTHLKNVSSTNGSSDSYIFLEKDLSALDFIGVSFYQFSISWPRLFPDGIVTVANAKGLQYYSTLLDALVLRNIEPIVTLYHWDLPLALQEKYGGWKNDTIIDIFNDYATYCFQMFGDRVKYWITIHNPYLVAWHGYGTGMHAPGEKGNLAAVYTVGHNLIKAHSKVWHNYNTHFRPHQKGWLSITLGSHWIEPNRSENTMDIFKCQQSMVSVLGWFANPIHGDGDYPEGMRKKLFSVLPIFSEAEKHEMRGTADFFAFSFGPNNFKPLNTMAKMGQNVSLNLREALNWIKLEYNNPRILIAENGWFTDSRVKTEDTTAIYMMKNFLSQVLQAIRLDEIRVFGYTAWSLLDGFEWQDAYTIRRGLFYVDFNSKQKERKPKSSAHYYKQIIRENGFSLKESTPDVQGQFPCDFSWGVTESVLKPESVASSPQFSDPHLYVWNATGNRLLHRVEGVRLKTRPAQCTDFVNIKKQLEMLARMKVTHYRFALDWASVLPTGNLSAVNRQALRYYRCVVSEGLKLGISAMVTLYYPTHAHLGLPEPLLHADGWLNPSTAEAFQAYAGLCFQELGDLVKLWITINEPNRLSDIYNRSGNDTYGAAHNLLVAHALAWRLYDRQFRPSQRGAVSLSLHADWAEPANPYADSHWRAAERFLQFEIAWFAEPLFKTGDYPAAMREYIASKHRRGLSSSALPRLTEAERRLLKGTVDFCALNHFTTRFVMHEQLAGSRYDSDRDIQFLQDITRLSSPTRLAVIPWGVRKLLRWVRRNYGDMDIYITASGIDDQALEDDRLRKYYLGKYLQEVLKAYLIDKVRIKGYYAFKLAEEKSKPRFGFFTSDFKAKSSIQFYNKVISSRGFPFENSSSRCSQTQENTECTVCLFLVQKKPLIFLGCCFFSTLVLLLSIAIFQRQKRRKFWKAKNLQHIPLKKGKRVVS", "test": "cell-based or functional assay"}
{"binder": "CB-8 (antibody, V domains shown) VH: EVQLVQSGAEVKKPGASVKVSCKASGYTFTSYGISWVRQAPGQGLEWMGWISAYNGNTNYAQKLQGRVTMTTDTSTSTAYMELRSLRSDDTAVYYCATLYGSGSLYYWGQGTLVTVSS VL: DIVMTQSPSSLSAPVGDRVTITCQASQDIRNYINWFQQKPGKAPKLLIYAASSLQSGVPSRFSGSGSGTDFTLTISSLQPEDFATYYCQQSYSTPQWTFGQGTKVEIK", "values": [{"measurement": "EC50, luciferase reporter-based assay (receptor activation)", "value": 1.31, "unit": "nM"}, {"measurement": "EC50 for antibody-induced cell activation, as determined by the reporter-based assay", "value": 3.74, "unit": "nM"}]}
{"binder": "CB-8-13 (antibody, human IgG1, V domains shown) VH: EVQLVQSGAEVKKPGASVKVSCKASGYRFTSYGISWVRQAPGQGLEWMGWISAYNGRTNYAQKLQGRVTMTTDTSTSTAYMELRSLRSDDTAVYYCATLYGSGSLYYWGQGTLVTVSS VL: DIVMTQSPSSLSAPVGDRVTITCQASQDIRNYINWFQQKPGKAPKLLIYAASRLQSGVPSRFSGSGSGTDFTLTISSLQPEDFATYYCQQSYSTPQWTFGQGTKVEIK", "values": [{"measurement": "EC50 for antibody-induced cell activation, as determined by the reporter-based assay", "value": 1.39, "unit": "nM"}]}
{"binder": "CB-8-37 (antibody, human IgG1, V domains shown) VH: EVQLVQSGAEVKKPGASVKVSCKASGYAFTSYGISWVRQAPGQGLEWMGWISAYSGNTNYAQKLQGRVTMTTDTSTSTAYMELRSLRSDDTAVYYCATLYGSGSLYYWGQGTLVTVSS VL: DIVMTQSPSSLSAPVGDRVTITCQASQDIRNYINWFQQKPGKAPKLLIYAASFLQSGVPSRFSGSGSGTDFTLTISSLQPEDFATYYCQQSYSTPQWTFGQGTKVEIK", "values": [{"measurement": "EC50 for antibody-induced cell activation, as determined by the reporter-based assay", "value": 0.92, "unit": "nM"}]}
{"binder": "CB-8-40 (antibody, human IgG1, V domains shown) VH: EVQLVQSGAEVKKPGASVKVSCKASGYTFTSYGISWVRQAPGQGLEWMGWISAYSGNTNYAQKLQGRVTMTTDTSTSTAYMELRSLRSDDTAVYYCATLYGSGSLYYWGQGTLVTVSS VL: DIVMTQSPSSLSAPVGDRVTITCQASQDIRNYINWFQQKPGKAPKLLIYAASYLQSGVPSRFSGSGSGTDFTLTISSLQPEDFATYYCQQSYSTPQWTFGQGTKVEIK", "values": [{"measurement": "EC50 for antibody-induced cell activation, as determined by the reporter-based assay", "value": 0.89, "unit": "nM"}]}
{"binder": "CB-8-23 (antibody, human IgG1, V domains shown) VH: EVQLVQSGAEVKKPGASVKVSCKASGYTFTSGGISWVRQAPGQGLEWMGWISAYNGRTNYAQKLQGRVTMTTDTSTSTAYMELRSLRSDDTAVYYCATLYGSGSLYYWGQGTLVTVSS VL: DIVMTQSPSSLSAPVGDRVTITCQASQDIRNYINWFQQKPGKAPKLLIYAASFLQSGVPSRFSGSGSGTDFTLTISSLQPEDFATYYCQQSYSTPQWTFGQGTKVEIK", "values": [{"measurement": "EC50 for antibody-induced cell activation, as determined by the reporter-based assay", "value": 0.57, "unit": "nM"}]}
{"binder": "CB-8-24 (antibody, V domains shown) VH: EVQLVQSGAEVKKPGASVKVSCKASGYTFTSYGISWVRQAPGQGLEWMGWISAYNGNTNYAQKLQGRVTMTTDTSTSTAYMELRSLRSDDTAVYYCATLLPSGSLYYWGQGTLVTVSS VL: DIVMTQSPSSLSAPVGDRVTITCQASQDIRNYINWFQQKPGKAPKLLIYAASSLQSGVPSRFSGSGSGTDFTLTISSLQPEDFATYYCQQSYSTPQWTFGQGTKVEIK", "values": [{"measurement": "EC50 for antibody-induced cell activation, as determined by the reporter-based assay", "value": 0.68, "unit": "nM"}]}
{"binder": "CB-8-41 (antibody, human IgG1, V domains shown) VH: EVQLVQSGAEVKKPGASVKVSCKASGYLFTSYGISWVRQAPGQGLEWMGWISAYTGNTNYAQKLQGRVTMTTDTSTSTAYMELRSLRSDDTAVYYCATLYGSGSLYYWGQGTLVTVSS VL: DIVMTQSPSSLSAPVGDRVTITCQASQDIRNYINWFQQKPGKAPKLLIYAASHLQSGVPSRFSGSGSGTDFTLTISSLQPEDFATYYCQQSYSTPQWTFGQGTKVEIK", "values": [{"measurement": "EC50 for antibody-induced cell activation, as determined by the reporter-based assay", "value": 1.43, "unit": "nM"}]}
{"binder": "CB-8-14 (antibody, human IgG1, V domains shown) VH: EVQLVQSGAEVKKPGASVKVSCKASGYTFRSYGISWVRQAPGQGLEWMGWISAYTGNTNYAQKLQGRVTMTTDTSTSTAYMELRSLRSDDTAVYYCATLYGSGSLYYWGQGTLVTVSS VL: DIVMTQSPSSLSAPVGDRVTITCQASQDIRNYINWFQQKPGKAPKLLIYAASSRQSGVPSRFSGSGSGTDFTLTISSLQPEDFATYYCQQSYSTPQWTFGQGTKVEIK", "values": [{"measurement": "EC50 for antibody-induced cell activation, as determined by the reporter-based assay", "value": 0.95, "unit": "nM"}]}
{"binder": "CB-8-26 (antibody, human IgG1, V domains shown) VH: EVQLVQSGAEVKKPGASVKVSCKASGYTFKSYGISWVRQAPGQGLEWMGWISAYNGRTNYAQKLQGRVTMTTDTSTSTAYMELRSLRSDDTAVYYCATLYGSGSLYYWGQGTLVTVSS VL: DIVMTQSPSSLSAPVGDRVTITCQASQDIRNYINWFQQKPGKAPKLLIYAASGLQSGVPSRFSGSGSGTDFTLTISSLQPEDFATYYCQQSYSTPQWTFGQGTKVEIK", "values": [{"measurement": "EC50 for antibody-induced cell activation, as determined by the reporter-based assay", "value": 0.66, "unit": "nM"}]}
